Data as given in patent publication US6521594 (LA JOLLA CANCER RESEARCH FOUNDATION, dated 2003).
Starred links: 1 amine or outer side, 2 acyl side, 3 side chain; linkers in the order of their positions; H or OH if unused. Positions of bridges follow the written chain, without caps; N, C: chain ends. Non-standard residues stand in square brackets, D forms with d. Primed or numbered codes have the meaning given here. No end group written: not given here. Tyr(OMe)″ = O-methyl-tyrosine (Y-OMe, TyrOMe, O-Me-Tyr), COc1ccc(C[C@H](N[*:1])C(=O)[*:2])cc1; t‑but‑am‑Pmp = tert-butyl-substituted beta,beta-pentamethylenecysteine; Pen = CC(C)(S)[C@H](N)C(=O)O

B1: R(t-but-am-Pmp)GHRGDLRCR-2 (peptide)
peptide: R[t‑but‑am‑Pmp]GHRGDLRCR
modifications: disulfide 2-10; not fully specified; printed as R(t-but-am-Pmp)GHRGDLRCR-2; also: second HPLC peak, configuration not assigned

What was measured:
Vitronectin receptor = molecular target: T1, Vitronectin receptor (human, UniProt P06756 31-1048; P05106 27-788); assay: competition, ELISA or liposome assay, vitronectin coated
T1 construct: mature; also called Vn-R; VnR

[1] = molecular target: T2, Platelet glycoprotein IIb/IIIa (human, UniProt P08514 32-1039; P05106 27-788); assay: competition, ELISA or liposome assay
T2 construct: mature; on human platelets in the aggregation assays (functional rows); also called GP IIb/IIIa; GPIIbIIIa

[2] = molecular target: T2, Platelet glycoprotein IIb/IIIa; assay: cell-based or functional assay
[3] = molecular target: T2, Platelet glycoprotein IIb/IIIa; assay: cell-based or functional assay; remark: listed apart in the source
[4] = molecular target: T2, Platelet glycoprotein IIb/IIIa; assay: cell-based or functional assay; remark: listed apart in the source
Fibronectin receptor = molecular target: T3, Fibronectin receptor (human, UniProt P08648 42-1049; P05556 21-798); assay: competitive ELISA, fibronectin coated
T3 construct: mature; Purified on a 110 kd fibronectin fragment column; also called Fn-R; FnR
T3 sequence (P08648 42-1049, chain 1 of 2): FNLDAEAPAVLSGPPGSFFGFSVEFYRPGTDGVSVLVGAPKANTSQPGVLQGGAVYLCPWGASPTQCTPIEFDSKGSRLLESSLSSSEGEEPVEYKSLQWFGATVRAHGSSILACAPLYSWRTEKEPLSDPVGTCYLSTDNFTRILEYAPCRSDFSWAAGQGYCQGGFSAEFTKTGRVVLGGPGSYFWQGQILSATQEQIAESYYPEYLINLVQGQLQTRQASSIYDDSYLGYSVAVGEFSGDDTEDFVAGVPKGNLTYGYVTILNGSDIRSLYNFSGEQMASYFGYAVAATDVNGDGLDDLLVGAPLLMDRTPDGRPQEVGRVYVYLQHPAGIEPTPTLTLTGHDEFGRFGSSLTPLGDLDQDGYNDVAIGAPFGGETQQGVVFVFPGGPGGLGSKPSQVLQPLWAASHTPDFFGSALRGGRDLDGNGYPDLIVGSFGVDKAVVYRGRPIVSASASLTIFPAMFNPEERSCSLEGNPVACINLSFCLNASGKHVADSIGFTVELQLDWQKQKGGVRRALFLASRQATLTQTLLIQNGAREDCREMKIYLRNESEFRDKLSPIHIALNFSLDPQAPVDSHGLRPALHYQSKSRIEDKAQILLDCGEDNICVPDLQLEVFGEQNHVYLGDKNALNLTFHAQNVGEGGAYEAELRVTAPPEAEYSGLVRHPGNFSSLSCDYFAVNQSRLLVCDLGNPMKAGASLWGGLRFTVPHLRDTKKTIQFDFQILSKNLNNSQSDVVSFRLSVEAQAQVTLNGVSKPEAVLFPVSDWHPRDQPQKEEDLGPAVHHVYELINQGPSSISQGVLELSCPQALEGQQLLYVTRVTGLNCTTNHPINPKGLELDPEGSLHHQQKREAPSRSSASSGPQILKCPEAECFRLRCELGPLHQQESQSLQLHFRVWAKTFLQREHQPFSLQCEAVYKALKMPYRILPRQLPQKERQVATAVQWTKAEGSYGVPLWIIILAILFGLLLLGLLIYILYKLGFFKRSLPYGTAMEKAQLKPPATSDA
T3 sequence (P05556 21-798, chain 2 of 2): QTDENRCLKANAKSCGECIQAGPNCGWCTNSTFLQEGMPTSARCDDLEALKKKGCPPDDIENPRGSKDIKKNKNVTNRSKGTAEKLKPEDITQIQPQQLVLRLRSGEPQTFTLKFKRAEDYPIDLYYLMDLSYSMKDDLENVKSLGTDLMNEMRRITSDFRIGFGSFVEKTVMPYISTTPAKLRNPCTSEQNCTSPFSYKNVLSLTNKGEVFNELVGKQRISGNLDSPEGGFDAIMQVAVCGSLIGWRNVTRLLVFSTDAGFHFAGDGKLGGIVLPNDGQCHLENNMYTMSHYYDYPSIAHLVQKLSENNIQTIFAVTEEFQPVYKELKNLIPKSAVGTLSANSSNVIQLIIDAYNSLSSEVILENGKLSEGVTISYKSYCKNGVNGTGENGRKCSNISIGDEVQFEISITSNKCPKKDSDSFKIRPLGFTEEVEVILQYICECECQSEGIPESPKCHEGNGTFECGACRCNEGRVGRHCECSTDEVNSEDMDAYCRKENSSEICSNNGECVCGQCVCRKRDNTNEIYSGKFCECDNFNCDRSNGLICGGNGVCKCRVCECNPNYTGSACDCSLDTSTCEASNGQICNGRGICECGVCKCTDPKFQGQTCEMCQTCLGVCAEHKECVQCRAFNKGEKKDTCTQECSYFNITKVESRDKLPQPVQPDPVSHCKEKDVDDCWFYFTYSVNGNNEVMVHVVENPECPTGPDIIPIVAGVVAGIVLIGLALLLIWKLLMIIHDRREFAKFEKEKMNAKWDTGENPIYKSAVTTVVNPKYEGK

T1 sequence (P06756 31-1048, chain 1 of 2): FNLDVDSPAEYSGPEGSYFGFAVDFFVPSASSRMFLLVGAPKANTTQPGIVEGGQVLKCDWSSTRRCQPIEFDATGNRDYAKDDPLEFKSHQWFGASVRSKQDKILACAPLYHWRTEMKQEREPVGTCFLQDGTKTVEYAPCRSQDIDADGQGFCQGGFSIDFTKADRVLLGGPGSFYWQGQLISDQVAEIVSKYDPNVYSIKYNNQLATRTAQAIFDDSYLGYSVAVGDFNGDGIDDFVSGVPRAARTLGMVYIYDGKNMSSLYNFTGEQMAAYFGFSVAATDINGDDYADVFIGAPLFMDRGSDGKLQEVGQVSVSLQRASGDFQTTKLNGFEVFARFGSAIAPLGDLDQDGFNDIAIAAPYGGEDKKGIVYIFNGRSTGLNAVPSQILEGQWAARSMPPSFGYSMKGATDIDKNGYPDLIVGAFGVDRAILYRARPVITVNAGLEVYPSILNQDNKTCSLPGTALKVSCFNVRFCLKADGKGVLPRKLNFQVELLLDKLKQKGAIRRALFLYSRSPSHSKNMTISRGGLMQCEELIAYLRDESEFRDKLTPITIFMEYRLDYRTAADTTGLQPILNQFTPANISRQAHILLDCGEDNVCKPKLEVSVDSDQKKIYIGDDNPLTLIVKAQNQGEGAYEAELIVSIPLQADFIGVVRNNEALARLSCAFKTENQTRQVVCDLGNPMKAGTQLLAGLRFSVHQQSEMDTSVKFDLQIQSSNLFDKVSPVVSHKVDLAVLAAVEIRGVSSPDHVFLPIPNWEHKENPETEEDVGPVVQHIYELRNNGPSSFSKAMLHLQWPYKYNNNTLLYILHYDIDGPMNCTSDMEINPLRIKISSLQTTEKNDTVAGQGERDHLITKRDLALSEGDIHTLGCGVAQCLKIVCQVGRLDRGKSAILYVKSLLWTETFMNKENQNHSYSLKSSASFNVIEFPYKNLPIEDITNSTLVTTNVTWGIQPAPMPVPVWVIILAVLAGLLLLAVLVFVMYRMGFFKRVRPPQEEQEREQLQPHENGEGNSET
T1 sequence (P05106 27-788, chain 2 of 2): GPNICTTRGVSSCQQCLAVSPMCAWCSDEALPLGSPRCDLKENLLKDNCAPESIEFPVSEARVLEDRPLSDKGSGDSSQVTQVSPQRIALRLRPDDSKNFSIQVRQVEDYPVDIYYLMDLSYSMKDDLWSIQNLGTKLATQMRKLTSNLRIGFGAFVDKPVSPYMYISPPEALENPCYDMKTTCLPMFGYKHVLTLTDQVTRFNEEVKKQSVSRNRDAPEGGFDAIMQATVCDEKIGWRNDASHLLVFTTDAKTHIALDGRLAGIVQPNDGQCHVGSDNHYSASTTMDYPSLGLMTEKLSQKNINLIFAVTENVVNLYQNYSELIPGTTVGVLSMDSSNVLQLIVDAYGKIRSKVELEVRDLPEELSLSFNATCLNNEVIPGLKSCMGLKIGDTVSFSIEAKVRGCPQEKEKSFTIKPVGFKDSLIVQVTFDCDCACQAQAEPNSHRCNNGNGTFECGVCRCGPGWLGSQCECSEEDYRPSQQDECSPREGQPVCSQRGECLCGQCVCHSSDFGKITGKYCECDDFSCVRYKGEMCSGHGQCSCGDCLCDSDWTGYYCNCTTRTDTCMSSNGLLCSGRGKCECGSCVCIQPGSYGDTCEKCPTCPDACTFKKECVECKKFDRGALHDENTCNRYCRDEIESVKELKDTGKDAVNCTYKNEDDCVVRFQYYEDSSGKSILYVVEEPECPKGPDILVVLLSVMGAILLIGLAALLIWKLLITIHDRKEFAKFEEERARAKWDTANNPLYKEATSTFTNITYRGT

| Binder | IC50 (Vitronectin receptor) | IC50 [1] | IC50 (µM) Human Platelet Aggregation [2] | Inhibition of Platelet Aggregation, IC50 [3] | IC50, ADP-Stimulated Aggregation [4] | IC50 (Fibronectin receptor) |
| --- | --- | --- | --- | --- | --- | --- |
| B1 | 3700 nM | 60 nM |  |  |  |  |
| R[Pen]GHRGDWRCR (disulfide 2-10, also called 4Q) [R(Pen)GHRGDWRCR] |  | 800 nM | 3.3 µM |  |  |  |
| Ac-CDPRGD[Tyr(OMe)″]RC-NH2 (disulfide 1-9 (inferred)) [AcCDPRGD(TyrOMe)RC-NH2] |  |  |  | 3000 nM |  |  |
| VRGDSPDG | 240 nM | 270 nM |  |  | 92000 nM | 40 nM |
